According to US9725708B2, “Methods of modulating ubiquitin ligase activity” (Board of Supervisors of Louisiana State University and …, priority 2012, dated 2017):
Like-named read-outs stand apart in the source and are kept apart here. No end group written: not given here.

Legend:
E6AP ligase [1] = molecular target: T1, E6AP ligase (Homo sapiens, UniProt Q05086); assay: E6AP-catalyzed 125I-polyubiquitin chain formation, initial rates; type: biochemical; conditions: for mode of action: with respect to [UbcH7]o
T1 construct: corresponding to full-length GST-E6AP; made in house; host or cells: E. coli
T1 sequence (Q05086 1-872 isoform Q05086-3): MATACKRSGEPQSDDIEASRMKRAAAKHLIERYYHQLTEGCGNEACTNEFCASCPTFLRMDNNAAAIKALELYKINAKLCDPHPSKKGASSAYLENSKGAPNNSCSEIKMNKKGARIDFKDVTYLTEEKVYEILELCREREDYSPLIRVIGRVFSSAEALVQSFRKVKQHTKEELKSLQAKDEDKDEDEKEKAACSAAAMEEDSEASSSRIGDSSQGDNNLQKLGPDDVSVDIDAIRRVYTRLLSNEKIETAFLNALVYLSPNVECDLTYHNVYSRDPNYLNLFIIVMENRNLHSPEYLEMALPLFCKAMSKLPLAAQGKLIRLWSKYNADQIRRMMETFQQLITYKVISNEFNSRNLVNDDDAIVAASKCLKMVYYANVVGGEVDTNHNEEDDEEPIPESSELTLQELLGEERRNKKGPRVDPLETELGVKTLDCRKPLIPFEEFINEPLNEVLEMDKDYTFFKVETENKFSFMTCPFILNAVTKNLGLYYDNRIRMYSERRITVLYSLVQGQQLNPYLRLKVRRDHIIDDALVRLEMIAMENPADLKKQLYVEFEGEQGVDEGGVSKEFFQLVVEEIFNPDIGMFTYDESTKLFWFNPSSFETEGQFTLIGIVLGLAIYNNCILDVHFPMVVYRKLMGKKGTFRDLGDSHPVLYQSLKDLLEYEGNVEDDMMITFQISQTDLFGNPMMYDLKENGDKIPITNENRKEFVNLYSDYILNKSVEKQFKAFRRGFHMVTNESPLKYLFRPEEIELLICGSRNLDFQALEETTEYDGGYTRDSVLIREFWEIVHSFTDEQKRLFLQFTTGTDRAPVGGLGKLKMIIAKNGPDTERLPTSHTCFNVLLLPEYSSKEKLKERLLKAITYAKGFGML
Method: (§1) E6AP-catalyzed ^125I-Ubiquitin Conjugation Assay: The E3 ligase activity of recombinant E6AP ligase was quantitated in kinetic assays under initial velocity conditions (Ronchi et al., (2013) J. Biol. Chem. 288, 10349-10360, Ronchi & Haas (2012) Methods Mol. Biol. 832: 197-218). Rates of E6AP-catalyzed ^125I-polyubiquitin chain formation were measured at 37° C. in incubations of 25-μl final volume containing 50 mM Tris-HCl (pH 7.5), 1 mM ATP, 10 mM MgCl2, 1 mM DTT, 10 mM creatine phosphate, 1 IU of creatine phosphokinase, 5 μM ^125I-ubiquitin (approximately 1.5×10^4 cpm/pmol), 50 nM human Uba1, and the indicated concentrations of UbcH7 and E6AP ligase (Siepmann et al., (2003) J. Biol. Chem. 278: 9448-9457; Baboshina et al., (2001) J. Biol. Chem. 276: 39428-39437).
(§2) Reactions were initiated by the addition of ^125I-ubiquitin. After 10-30 min, the reactions were quenched by the addition of 25 μl of 2×SDS sample buffer containing 0.3% (v/v) β-mercaptoethanol, and then the samples were heated to 100° C. for 3 min. The polyubiquitin conjugates were resolved from free ^125I-ubiquitin by 12% (w/v) SDS-PAGE under reducing conditions at 4° C. and visualized by autoradiography of the dried gels.
(§3) Polyubiquitin chain formation was measured by excising lanes between the top of the resolving gel and the top of the stacker gel, representing anchored and free ^125I-polyubiquitin chains, respectively, and quantitating associated ^125I-ubiquitin by γ-counting. Absolute rates of ^125I-polyubiquitin chain formation were calculated from the associated radioactivity and the corrected specific radioactivity for ^125I-ubiquitin. Datum points represent single assay determinations, and complete data sets were evaluated by non-linear regression analysis using GraFit version 5.0 (Erithicus). Active Uba1, E2, and E6AP ligase were independently determined in parallel by their stoichiometric formation of ^125I-ubiquitin thioester.

His6-E6AP ligase = molecular target: T2, His6-E6AP ligase (Homo sapiens, UniProt Q05086); assay: Static light-scattering of His6-E6AP ligase oligomer
T2 construct: Full-length recombinant His6-E6AP ligase was isolated from the medium; made in house; host or cells: Sf9 insect cells (baculovirus)
T2 sequence (Q05086 1-872 isoform Q05086-3): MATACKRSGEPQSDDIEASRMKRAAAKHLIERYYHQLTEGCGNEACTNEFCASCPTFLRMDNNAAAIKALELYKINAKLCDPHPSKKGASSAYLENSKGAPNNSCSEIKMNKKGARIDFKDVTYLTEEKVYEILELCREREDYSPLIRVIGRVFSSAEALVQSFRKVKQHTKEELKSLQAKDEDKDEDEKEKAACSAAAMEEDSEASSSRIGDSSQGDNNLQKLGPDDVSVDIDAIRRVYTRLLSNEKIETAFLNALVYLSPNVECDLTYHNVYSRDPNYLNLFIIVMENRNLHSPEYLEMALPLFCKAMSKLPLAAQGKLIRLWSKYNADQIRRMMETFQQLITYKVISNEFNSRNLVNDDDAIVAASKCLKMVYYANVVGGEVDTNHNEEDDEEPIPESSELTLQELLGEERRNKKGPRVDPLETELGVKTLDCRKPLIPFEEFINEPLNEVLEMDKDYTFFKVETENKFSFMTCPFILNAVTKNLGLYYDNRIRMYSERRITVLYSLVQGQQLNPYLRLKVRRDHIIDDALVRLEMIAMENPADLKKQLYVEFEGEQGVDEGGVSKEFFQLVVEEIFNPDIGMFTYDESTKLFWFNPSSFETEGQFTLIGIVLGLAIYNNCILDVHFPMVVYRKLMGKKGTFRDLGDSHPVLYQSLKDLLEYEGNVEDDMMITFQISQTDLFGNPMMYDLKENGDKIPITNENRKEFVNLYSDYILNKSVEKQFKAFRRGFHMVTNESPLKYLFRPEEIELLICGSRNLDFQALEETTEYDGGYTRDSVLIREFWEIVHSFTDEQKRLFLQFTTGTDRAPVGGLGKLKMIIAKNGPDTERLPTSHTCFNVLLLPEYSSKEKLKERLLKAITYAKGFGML
Method: Static Light-scattering Measurements: His6-E6AP ligase after the His trap affinity purification step was further purified by FPLC using a Mono Q 5/50 column (Amersham Biosciences) equilibrated in 50 mM Tris-HCl (pH 7.5) and 1 mM DTT. Recombinant His6-E6AP ligase eluted at 300 mM NaCl in a 0-500 mM gradient (16 mM/ml, 1 ml/min). The molecular weight of His6-E6AP ligase was determined in solution at 37° C. by static light-scattering using a 235-DynaPro NanoStar laser light-scattering spectrometer at 663 nm wavelength (Wyatt Technology Corp.). Spectra were collected for 18 μM His6-E6AP ligase in 50 mM Tris-HCl (pH 7.5) containing 200 mM NaCl. The effect of Ac-PheNH2 on the molecular weight of His6-E6AP ligase was determined in 50 mM Tris-HCl (pH 7.5) containing 200 mM NaCl, 16 μM His6-E6AP ligase total protein, 61 mM Ac-PheNH2, and 8% (v/v) carrier methanol. The molecular weight of E6AP ligase was also evaluated in reactions containing 0-350 μM Ac-NRIRMYSERRITVLYSL (SEQ ID NO: 1) in 50 mM Tris-HCl (pH 7.5), 250 mM NaCl, 1 mM DTT, and 17 μM His6-E6AP. Data were analyzed with Dynamics® software at both default and maximum sensitivity to detect the presence of low concentrations of E6AP ligase oligomeric forms.

E6AP ligase [2] = assay: E6AP-catalyzed 125I-polyubiquitin chain formation, initial rates; type: biochemical, Human; conditions: free GST less than 5 μM; GST-E6AP
Method: as §1, §2, §3

GST [3] = molecular target: T3, GST (Schistosoma japonicum, UniProt P08515); conditions: literature value, cited from earlier work
T3 sequence (P08515 whole entry): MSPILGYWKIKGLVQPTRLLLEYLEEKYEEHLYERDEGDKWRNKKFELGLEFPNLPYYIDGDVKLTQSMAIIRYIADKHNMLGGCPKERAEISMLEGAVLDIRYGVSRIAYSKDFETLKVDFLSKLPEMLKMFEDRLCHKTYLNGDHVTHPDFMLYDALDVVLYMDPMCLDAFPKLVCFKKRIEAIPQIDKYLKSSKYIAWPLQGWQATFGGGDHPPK

GST [4] = molecular target: T3, GST; assay: GST dimerization; type: binding; conditions: predicted from ΔΔGbinding of GST-E6APΔ495 vs E6APΔ495
[5] = molecular target: T4, UbcH7˜ubiquitin thioester (Homo sapiens, UniProt P68036); assay: Kinetics of 125I-polyubiquitin chain formation by E6AP ligase forms with respect to [UbcH7]o; type: biochemical
T4 construct: made in house
T4 sequence (P68036 whole entry, other chains not shown): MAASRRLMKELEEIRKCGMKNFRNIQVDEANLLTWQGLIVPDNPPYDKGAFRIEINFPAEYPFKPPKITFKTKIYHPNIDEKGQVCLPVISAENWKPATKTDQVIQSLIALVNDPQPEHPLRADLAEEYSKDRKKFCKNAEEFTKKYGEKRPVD
Method: as §1, §2, §3

[6] = Table 1, Hect domain row is monoubiquitination
[7] = non-competitive with respect to [UbcH7]o, His6-E6AP, read-out: Ki

Question: What does the source list for `CC(=O)N[C@@H](Cc1ccccc1)C(N)=O` [Ac-PheNH2, N-acetyl-L-phenylalanylamide]?
Answer: Ki (E6AP ligase [1]; 125I-polyubiquitin chain formation, read-out: Ki): 12000 ± 3000 µM; Ki (E6AP ligase [1]; His6-E6AP, non-competitive with respect to [UbcH7]o, absence or presence of 44 mM Ac-PheNH2, read-out: Ki): 12000 ± 3000 µM; effect on polyubiquitin chain formation (E6AP ligase [1]; inhibitors, at higher concentrations): quantitative inhibition; mode of action (E6AP ligase [1]): non-competitive inhibitor; effect on E6AP ligase oligomer (His6-E6AP ligase): disrupts trimer formation; molecular weight of His6-E6AP ligase peak after addition (His6-E6AP ligase; 61 mM Ac-PheNH2, 16 μM His6-E6AP, 8% methanol): 104 kDa

Question: With “Ac-NRIRMYSERRITVLYSL [Ac-NRIRMYSERRITVLYSL peptide, Ac-NRIRMYSERRITVLYSL]” as the molecule, how does the Ki (E6AP ligase [1]; His6-E6AP, hyperbolic dependence, semi-reciprocal plot, read-out: Ki (apparent)) read?
Answer: 22 ± 2 µM

Question: And the mode of action (E6AP ligase [1])?
Answer: non-competitive inhibitor

Question: What about the “effect on E6AP ligase oligomer” value (His6-E6AP ligase) of the same molecule?
Answer: promotes dissociation

Question: What does the source list for “GST: recombinant free glutathione-S-transferase”?
Answer: K½ of decrease in initial rate of polyubiquitin chain formation (E6AP ligase [2]): approximately 1 μm; Kd (GST [3]; b128, read-out: Kd for GST dimerization): 0.6 µM; Kd for GST association, published value (GST [3]; b130): 0.6 µM; Kd for GST association (GST [4]): 1.6 µM

Question: What does the source list for “Homogeneous His6-E6AP: baculoviral-expressed full-length His6-E6AP ligase”?
Answer: Km [5]: 0.046 ± 0.007 µM; kcat [5]: 0.63 ± 0.03 s⁻¹; kcat higher than heterogeneous GST-E6AP [5]: 20 fold; kcat ([5]; Table 1): 6.3 ± 0.3 × 10^−1 s^−1; Km [5, 6]: 0.046 ± 0.007 µM

B1: GST-E6AP ligase Hect domain: GST fusion of E6AP ligase Hect domain residues 450-852 (protein, UniProt Q05086 450-852, looked up, fragment)
chain: INEPLNEVLEMDKDYTFFKVETENKFSFMTCPFILNAVTKNLGLYYDNRIRMYSERRITVLYSLVQGQQLNPYLRLKVRRDHIIDDALVRLEMIAMENPADLKKQLYVEFEGEQGVDEGGVSKEFFQLVVEEIFNPDIGMFTYDESTKLFWFNPSSFETEGQFTLIGIVLGLAIYNNCILDVHFPMVVYRKLMGKKGTFRDLGDSHPVLYQSLKDLLEYEGNVEDDMMITFQISQTDLFGNPMMYDLKENGDKIPITNENRKEFVNLYSDYILNKSVEKQFKAFRRGFHMVTNESPLKYLFRPEEIELLICGSRNLDFQALEETTEYDGGYTRDSVLIREFWEIVHSFTDEQKRLFLQFTTGTDRAPVGGLGKLKMIIAKNGPDTERLPTSHTCFNVLLLPEY
modifications: HECT domain GST fusion
Question: With B1 as the molecule, how does the Km [5] read?
Answer: 0.089 ± 0.011 µM

Question: And the “kcat lower than full-length E6AP ligase” value [5]?
Answer: 2000 fold

Question: What about the kcat ([5]; Table 1) of the same molecule?
Answer: 3.2 ± 0.1 × 10^−4 s^−1

Question: What about the Km [5, 6] of the same molecule?
Answer: 0.089 ± 0.011 µM

B2: E6(HPV16)Δ91: recombinant E6 N-terminal domain encompassing residues 1-91 (protein, UniProt P03126 1-91, looked up, fragment)
chain: MHQKRTAMFQDPQERPRKLPQLCTELQTTIHDIILECVYCKQQLLRREVYDFAFRDLCIVYRDGNPYAVCDKCLKFYSKISEYRHYCYSLY
Question: Which results are given for B2?
Answer: Ki (E6AP ligase [1]; hyperbolic concentration dependence, not shown, read-out: apparent Ki): 4 µM; Ki (E6AP ligase [1]; [7]): 6 µM; mode of action (E6AP ligase [1]): non-competitive inhibition

B3: E6(HPV16)Ct: recombinant E6 C-terminal domain encompassing residues 89-158 (protein, UniProt P03126 89-158, looked up, fragment)
chain: SLYGTTLEQQYNKPLCDLLIRCINCQKPLCPEEKQRHLDKKQRFHNIRGRWTGRCMSCCRSSRTRRETQL
Question: Which Ki (E6AP ligase [1]; [7]) does the source give for B3 here?
Answer: 4 µM

Question: What about the mode of action (E6AP ligase [1]) of the same molecule?
Answer: non-competitive inhibitor
